The values below come from the Immune Epitope Database (IEDB).

pIC50: −log10 of the molar value.

In the first assay the target is HLA-A*03:01. As to the kind of experiment: IEDB peptide-MHC binding, purified MHC/competitive/fluorescence; ≥ and ≤ were set here for values at or beyond the usual limits of such assays. As to conditions: source organism: Plasmodium falciparum.
The pIC50 is the negative decadic logarithm of the IC50, by convention in mol/L. Low readings indicate a high IC50, high ones a low IC50. On to DLMNRTFKK, for which the pIC50 is ≤ 4.00.
Still for that read-out and setting: to HTKIINDKTK belongs ≤ 4.14; to LSSYVSLPLK, 6.18.
Still for that read-out and setting: with SIYHKSSTY the figure was 5.23.
Same read-out and setting: with KLKYVTESLK the figure was 5.48.
With NSIYHKSSTY, the pIC50 was ≤ 4.00.
Still for that read-out and setting: to KMMDEYNTKK belongs 5.07; to FISDDKDSLK, ≤ 3.16.
Still for that read-out and setting: to KIFTFIENK belongs 6.33; to CVCTYNYYKK, 4.84; to RTFKKMMDEY, ≤ 4.00.
On the same count and under the same terms, to RTFQKDELLK belongs 4.62; to HLSYNSIYHK, 4.35.
For GSYIYIDTIK, the pIC50 is ≤ 4.15.
Same read-out and setting: with RLSHTDIHK the figure was 5.76.
The same measure, in the same setting: with HIYVQKKVK the figure was 6.05.
Same read-out and setting: to KLNIWRTFQK belongs 5.60; to PVATGNQYLK, ≤ 3.48; to LICGVSPYK, 6.38.
Turning to ATCKYGFNK, the pIC50 is 5.32.
The same measure, in the same setting: to FIPSHNSFIK belongs ≤ 4.00; to VENNFPCSLY, ≤ 4.07.
Still for that read-out and setting: with TLNDEYIVSY the figure was ≤ 3.52; with FVCSNRDFLK, ≤ 4.00; with NSYKEWISKK, 5.13.
Same read-out and setting: to STCYGNRFNY belongs ≤ 4.00.
For the sequence SAFLPTGAFK, the pIC50 was 6.46.
In the case of SILPDINKSK, the pIC50 was 4.90.
On the same count and under the same terms, with ILNNSKFNK the figure was 6.38; with KVKSKCNDIK, 4.41; with STCRFFVCK, 5.23.
Take NVNFLQYHFK: the pIC50 is ≤ 4.00.
Same read-out and setting: to FLDYYKHLSY belongs ≤ 4.00.

Another assay concerns the target HLA-B*07:02. The assay is described as above. The settings on record: source organism: Plasmodium falciparum.
Sequence SPLNLQENEM gave a pIC50 of 4.65.
Same read-out and setting: with LPLKIENREY the figure was ≤ 4.00; with KSAFLPTGAF, ≤ 4.00; with KPECVCKENL, ≤ 3.69.
Same read-out and setting: with MIRIKKKLIL the figure was ≤ 4.00; with HPYDINNKND, ≤ 4.00; with SPNDNINVT, 4.44.
On the same count and under the same terms, with KVKDSWITL the figure was 6.34; with FITSDHLRQM, ≤ 4.00; with MPKAVIGSSP, ≤ 3.53.
In the case of KPEKYGNTTA, the pIC50 was ≤ 3.08.
In turn, NPEDRNSNTL had a pIC50 of 5.57.
The same measure, in the same setting: to TIIYIHLFIL belongs 4.86; to IPFHKKFISF, 4.66; to RASHTTPVL, 6.59.
On the same count and under the same terms, to LPSAKNNCEY belongs ≤ 4.00; to FPCSLYKDEI, ≤ 4.00; to NPQQSVGENG, ≤ 4.00.
The same measure, in the same setting: with RPNDCESVL the figure was 6.42; with MDMKNYGTNL, ≤ 4.00; with LQKHGFHTM, ≤ 4.00.
As for FNRIEYHTKI, the pIC50 was ≤ 4.00.
CPRKNLQNA had a pIC50 of 6.31.
The same measure, in the same setting: with FVLENGVCI the figure was ≤ 3.55.
Same read-out and setting: to IPHYTFLDYY belongs ≤ 4.00; to ITSDHLRQM, ≤ 3.74; to RPYISKNDL, 6.61.
On the same count and under the same terms, with KPHECVCNKQ the figure was ≤ 4.00.
For the sequence LPIKSTEEEK, the pIC50 was ≤ 4.00.
IKKKLILTII had a pIC50 of 4.36.
Same read-out and setting: to KRASHTTPV belongs ≤ 4.00; to TPGPLDNTSE, ≤ 4.00; to MNRTFKKMM, ≤ 4.00.

Another assay concerns the target HLA-A*24:02. The description is as above. As to conditions: source organism: Plasmodium falciparum.
Regarding IKLNIWRTF, the pIC50 is 5.85.
Same read-out and setting: with LTIIYIHLF the figure was 4.16; with YYRSSRGECI, 6.76; with YLNKYVYTI, 6.87.
Still for that read-out and setting: with AYLNKYVYTI the figure was 6.90.
Same read-out and setting: with SYNSIYHKS the figure was 4.24.
QYLKDGGFAF showed a negative logarithm of the IC50 (pIC50) of 7.38. Against the preceding sequence, the pIC50 is 3.14 log units higher.
Still for that read-out and setting: with SYRYDISEEI the figure was 6.44; with IYIHLFILN, ≤ 3.85.
Same read-out and setting: to RYNLYDKKL belongs 6.77.
The same measure, in the same setting: to DFVIIPHYTF belongs 6.54; to GYSTKAENKI, 5.74.
IFFNNENSI had a pIC50 of 7.24.
Still for that read-out and setting: with IYKRELYNI the figure was 7.06; with KLPLESSTI, 6.67.
Same read-out and setting: to GYNWGNYNTE belongs ≤ 4.00.
Consider AYVSCYRVSF, for which the pIC50 is 7.24.
On the same count and under the same terms, with IFHHLIYVL the figure was 5.02; with PYISKYGNKL, 6.75.
Same read-out and setting: with EYKDEYADI the figure was 5.68; with NFGRGQNYW, 6.64.
Same read-out and setting: to KYLFIPSHN belongs 5.21.
The sequence PFHKKFISFF showed a pIC50 of 7.45.
Same read-out and setting: to EYPLHQEHTY belongs 6.00; to DMKNYGTNLF, 5.28.
On the same count and under the same terms, to NYKLGVQYFF belongs 4.58.
SYFTYDSEEY gave a pIC50 of 4.65.
As for NYMGNPWTE, the pIC50 was 4.42.

In the next assay the target is HLA-B*44:02. The description is as above. The settings on record: source organism: Plasmodium falciparum.
In the case of KEIDNDKENI, the pIC50 was ≤ 4.00.
On the same count and under the same terms, to LEFVCSNRDF belongs 5.13.
Still for that read-out and setting: with SECDIGLIY the figure was ≤ 4.00; with KEKHLNNIF, ≤ 4.00; with DEYIHKLIL, ≤ 4.00.
On the same count and under the same terms, with EENYRCTQDI the figure was ≤ 3.17; with NDNNFAECY, ≤ 4.00; with GEEKRASHTT, 5.00.
NENNENNFL: the negative-log IC50 (pIC50) is ≤ 4.00.
The same measure, in the same setting: with EEKDDIKNG the figure was ≤ 4.00; with NEYSLFITS, ≤ 4.00; with IEIVERSNY, 5.10.
Same read-out and setting: with NEKNDVKNN the figure was ≤ 4.00; with KEYNNSEITI, 4.96.
Take KEKFYKNNLY: the pIC50 is ≤ 3.04.
Still for that read-out and setting: with KEMKHIFNRI the figure was 4.41; with FEWHTLSKEY, 4.72.
Still for that read-out and setting: to EELQITQWI belongs 4.71; to VENNFPCSLY, 5.22.
Still for that read-out and setting: with NEIDKLTFSL the figure was ≤ 3.48.
Regarding YENKSLTHYL, the pIC50 is ≤ 3.95.
On the same count and under the same terms, to KDLSDMTNI belongs ≤ 4.00.
As to VQYFFLRPYI, the negative-log IC50 (pIC50) was ≤ 4.00.
Same read-out and setting: with NDVPIKMEYF the figure was ≤ 4.00.

In the next assay the target is HLA-A*01:01. The assay is described as above. As to conditions: source organism: Plasmodium falciparum.
Take SECDIGLIY: the pIC50 is ≤ 4.00.
Still for that read-out and setting: to FTYDSEEYY belongs 6.87; to LTIIYIHLF, ≤ 4.00.
Same read-out and setting: to FNDVPIKMEY belongs 6.30.
Still for that read-out and setting: with NNEDYKNVDY the figure was 5.10.
For the sequence LNDEYIVSY, the pIC50 was 4.55.
The same measure, in the same setting: to IPDNDKNSNY belongs 4.83.
Same read-out and setting: with NSILIKPEKY the figure was ≤ 3.96; with LSDTLQLHED, ≤ 4.00.
The same measure, in the same setting: to ASDQPKQYEQ belongs ≤ 3.90.
Take SIYHKSSTY: the pIC50 is ≤ 4.00.
Still for that read-out and setting: with NSIYHKSSTY the figure was ≤ 4.00; with STDPHTNSNN, ≤ 4.00; with NTNGIRYHY, 5.36.
Still for that read-out and setting: with NKNDDSYRY the figure was 5.18; with RTFKKMMDEY, ≤ 4.00; with STEEEKDDIK, 5.17.
Still for that read-out and setting: to SIEIVERSNY belongs 4.92.
As to TSSLIKQNKY, the pIC50 is 4.43.
Still for that read-out and setting: with NLFEQLSCY the figure was ≤ 4.00; with DSCVPNTNEY, ≤ 4.00.
Same read-out and setting: to DVSTLNDEY belongs 4.28; to LTPVATGNQY, 5.59; to NEDYKNVDY, 5.05.
On the same count and under the same terms, with DTDSNHTPSN the figure was 5.23; with HREHPKEYEY, 4.96; with TLNDEYIVSY, ≤ 3.67.
Sequence YIDTIKFIHK gave a pIC50 of 5.82.
Same read-out and setting: to STCYGNRFNY belongs 4.27; to ENDYAYLNKY, 4.38.
The same measure, in the same setting: with GEEDETHIY the figure was ≤ 3.58; with FLDYYKHLSY, 6.19; with HLDFVIIPHY, ≤ 3.93.

The target of a further assay is HLA-A*02:01. The assay is described as above. The settings on record: source organism: Plasmodium falciparum.
Sequence SLFITSDHL had a pIC50 of 5.15.
Same read-out and setting: with AVLATILMV the figure was 4.63; with YVGDNINNV, 5.74; with FLPTGAFKA, 5.86.
Same read-out and setting: to VLLLSAFEFT belongs ≤ 4.00.
The same measure, in the same setting: to YLNKYVYTI belongs 6.47; to YIYIDTIKFI, 4.27.
KVKDSWITL gave a negative logarithm of the IC50 (pIC50) of 5.40.
On the same count and under the same terms, with KMMDEYNTKK the figure was ≤ 3.29; with FISDDKDSL, ≤ 3.47; with SMIKSAFLPT, 4.90.
Same read-out and setting: with FQYNDDASI the figure was 6.56; with SLIKQNKYV, 4.52.
On the same count and under the same terms, with KLGVQYFFL the figure was 6.09; with YMGNPWTEYM, 4.67.
Sequence YIFFNNENSI gave a pIC50 of 5.55. Compared with the last sequence, the pIC50 is 0.88 log units higher.
The same measure, in the same setting: to ILDMSNEYSL belongs 5.16; to KLPLESSTI, 5.67; to FIPSHNSFI, 4.51.
The same measure, in the same setting: to FLQYHFKEL belongs 4.84; to SVLNGNDNTI, ≤ 3.19.
On the same count and under the same terms, to FVLENGVCI belongs 5.38.
Consider RQMLYNTFYS, for which the pIC50 is ≤ 3.50.
On the same count and under the same terms, to KMYSEFKSI belongs 5.99.
Still for that read-out and setting: with YLNTNVNDGL the figure was 5.55; with YIYNQIIWKI, 5.71; with YIHKLILSV, 5.94.
The same measure, in the same setting: with CLINNSSYI the figure was 5.42; with HLNNIFHHL, 6.65.
Regarding KRASHTTPV, the pIC50 is ≤ 4.00.
Still for that read-out and setting: to NLFSSIEIV belongs 5.81; to VLNGNDNTI, 5.14; to NIFHHLIYV, 5.64.
The same measure, in the same setting: with DMSNEYSLFI the figure was ≤ 4.00; with KINETYDKV, 5.00; with VQYFFLRPYI, ≤ 4.00.
